# Measured values reported in paper PMC3897377, “Utilizing Nanobody Technology to Target Non-Immunodominant Domains of VAR2CSA” (PLoS ONE, 2014).
# Changes are numbered by the printed parent chain.
# B1: Nb12 (VHH)
# VHH: QVQLQESGGGLVQVGGSLRLSCAASGRTFSNYAMGWFRQAPGEEREFVAAISWSDNNTLYTDSVKGRFTISRDNAENTVYLQMNSLEPEDTAVYYCAAGRRPRLRVGLNEFDYWGQGTQVTVSS
# notes: from an alpaca immunized with full-length VAR2CSA; pHEN6c vector; also called Nanobody 12; VHH; source: E. coli WK6, periplasmic extract, purified (HisTrap); not shown: His6, C-terminal, kept
# B2: Nb07 (VHH)
# VHH: QVQLQESGGGLVQAGGSLRLSCAASGFTFDDYVIGWFRQAPGKEREGVSCISRSDGSTYYADSVKGRFTISSDNAKNTIYLQMNSLKPEDTAVYHCAAAMTHFGLGPGPNEYDYWGQGTQVTVSS
# notes: from an alpaca immunized with full-length VAR2CSA; pHEN6c vector; also called Nanobody 07; VHH; source: E. coli WK6, periplasmic extract, purified (HisTrap); not shown: His6, C-terminal, kept
# B3: Nb01 (VHH)
# VHH: QVQLQESGGGLVQAGGSLRLSCAASGRTFNSYVMGWFRQAPGKEREFVAAISWSGGNAYYADSVKGRFTISRDNAENTVYLLMNSLKPEDTAVYYCAAALTRLARNEYDYLGQGTQVTVSS
# notes: from an alpaca immunized with full-length VAR2CSA; pHEN6c vector; also called Nanobody 01; VHH; source: E. coli WK6, periplasmic extract, purified (HisTrap); not shown: His6, C-terminal, kept
# B4: Nb10 (VHH)
# VHH: QVQLQESGGGLVQAGGSLRLSCAASGRTFSSNLMGWLRQAPGKEREFVAAMSMSGGDTFYADSVKGRFTISRDNAKNMVHLQMNSLKPEDTAIYYCAAADVRLSAYEYDYWGQGTQVTVSS
# notes: from an alpaca immunized with full-length VAR2CSA; pHEN6c vector; also called Nanobody 10; VHH; source: E. coli WK6, periplasmic extract, purified (HisTrap); not shown: His6, C-terminal, kept
# B5: Nb15 (VHH)
# VHH: QVQLQESGGGLVQPGGPLRLSCAASGFTFDNYAMGWFRQAPGKEREFVAAISWSAGTTYYADSVKGRFTISRDNAKNTVSLQMNSLKPEDTAVYYCAAAYDGITMVVEYTNEYEYDYWGQGTQVTVSS
# notes: from an alpaca immunized with full-length VAR2CSA; pHEN6c vector; also called Nanobody 15; VHH; source: E. coli WK6, periplasmic extract, purified (HisTrap); not shown: His6, C-terminal, kept
# B6: Nb11 (VHH)
# VHH: QVQLQESGGGLVQAGGSLRLSCAASGRTFSSYAMGWFRQAPGREREFVALISWSGGSTTYADSVKGRFTISRDNAQNTVYLQMNSLKPEDTAVYYCTAAGSFEGEYDYWGQGTQVTVSS
# notes: from an alpaca immunized with full-length VAR2CSA; pHEN6c vector; also called Nanobody 11; VHH; source: E. coli WK6, periplasmic extract, purified (HisTrap); not shown: His6, C-terminal, kept
# B7: Nb02 (VHH)
# VHH: B6 VHH with R43K, L50F, T59S, Q76K, T97V, A99S
# notes: from an alpaca immunized with full-length VAR2CSA; pHEN6c vector; also called Nanobody 02; VHH; source: E. coli WK6, periplasmic extract, purified (HisTrap); not shown: His6, C-terminal, kept
# B8: Nb03 (VHH)
# VHH: QVQLQESGGGLVQAGGSLRLSCVVSGHTFSGYVMGWFRQAPGKEREFVSSISGYGGITDYADSVKGRFTMSRDNAKNTVYLRMNSLKPEDTAVYYCAVRRSGSSREYDYWGQGTQVTVSS
# notes: from an alpaca immunized with full-length VAR2CSA; pHEN6c vector; also called Nanobody 03; VHH; source: E. coli WK6, periplasmic extract, purified (HisTrap); not shown: His6, C-terminal, kept
# B9: Nb17 (VHH)
# VHH: QVQLQESGGGLVQPGGSLRLSCAASGFTFSGSASWVRQAPGKELEWVSSISGFGGITDYADSVKGRFTISRDNSKNTLYLQNSLKPEDTAVYYCAKGRTGWTSSFLRGQGTQVTVSS
# notes: from an alpaca immunized with full-length VAR2CSA; pHEN6c vector; also called Nanobody 17; VHH; source: E. coli WK6, periplasmic extract, purified (HisTrap); not shown: His6, C-terminal, kept
# B10: Nb06 (VHH)
# VHH: QVQLQESGGGLVQAGGSLRLSCAASGFTFDDYAIGWFRQAPGKEREGVSCISSSDGVTYYVDSVKGRFTISSDNAKNTVYLQMNSLKPEDTAVYHCAASPDYYCDAGFLNYGIDYWGEGTQVTVSS
# notes: from an alpaca immunized with full-length VAR2CSA; pHEN6c vector; also called Nanobody 06; VHH; source: E. coli WK6, periplasmic extract, purified (HisTrap); not shown: His6, C-terminal, kept
# B11: Nb08 (VHH)
# VHH: QVQLQESGGGLVQPGGSLRLSCVTSGFTLDYYNIGWFRQAPGKEREGVSCISISDGSTYYADSVKGRFTISRDNAKNTVYLQMNSLKPEDTAVYYCAIRLDGSSCDPEEYDYWGQGTQVTVSS
# notes: from an alpaca immunized with full-length VAR2CSA; pHEN6c vector; also called Nanobody 08; VHH; source: E. coli WK6, periplasmic extract, purified (HisTrap); not shown: His6, C-terminal, kept
# B12: Nb14 (VHH)
# VHH: QVQLQESGGGLVQAGGSLRLSCAASGFTLDDYGIGWFRQAPGKEHEGVSSISSGDGSTYYADSVKGRFTISSDNAKNTVYLQNSLKPEDTAVYYCAAGGLHRPLTIATTRGYGIDYWGKGTQVTVSS
# notes: from an alpaca immunized with full-length VAR2CSA; pHEN6c vector; also called Nanobody 14; VHH; source: E. coli WK6, periplasmic extract, purified (HisTrap); not shown: His6, C-terminal, kept
# B13: Nb05 (VHH)
# VHH: QVQLQESGGGLVQPRGSLRLSCTASERDFGLVVMGWHRQAPGKQRELVAQIGTGGRTNYADSVKGRFTISIDAAKNTVYLQMNNLKPEDTAVYYCNAPLSGIWGQGTQVTVSS
# notes: from an alpaca immunized with full-length VAR2CSA; pHEN6c vector; also called Nanobody 05; VHH; source: E. coli WK6, periplasmic extract, purified (HisTrap); not shown: His6, C-terminal, kept
# B14: Nb13 (VHH)
# VHH: QVQLQESGGGLVQPGGSLRLSCAFSGRTSRNYAMAWFRQAPGKEREFVAATSWNGDITPYGVVVKGRFTISRDNAKSTVYLKMNDLKPEDTAVYYCAAEPRFAPPVVAHEYDYWGRGTQVTVSS
# notes: from an alpaca immunized with full-length VAR2CSA; pHEN6c vector; also called Nanobody 13; VHH; source: E. coli WK6, periplasmic extract, purified (HisTrap); not shown: His6, C-terminal, kept
# B15: Nb16 (VHH)
# VHH: QVQLQESGGGLVQPGGSLRLSCVASGFTFSSVGSWVRQAPGKGLEWVSAISSFSGLRSYADSVKGRFTISRDNAKNTLYLENSLKPEDTAVYYCAKGTVRVGPWLRGQGTQVTVSS
# notes: from an alpaca immunized with full-length VAR2CSA; pHEN6c vector; also called Nanobody 16; VHH; source: E. coli WK6, periplasmic extract, purified (HisTrap); not shown: His6, C-terminal, kept
# Biological target: T1, ID1–ID2a minimal CSA-binding region of VAR2CSA, produced in E. coli (Plasmodium falciparum FCR3, UniProt Q6UDW7, strain)
# T1 construct: ID1–ID2a region; also called ID1–ID2a (coli); source: E. coli
# Test: ELISA; recombinant VAR2CSA protein or domain (50 nM in PBS) coated on MaxiSorp plates overnight at 4°C; Nb 50 nM in 1% skim milk in PBS, 90 min RT; detected with rabbit anti-camel and HRP anti-rabbit, OD 490 nm after 20 min
# Settings: both partners purified
row,Binder,binding result
1,B1,binds
2,B2,binds
3,B3,binds
4,B4,binds

# Biological target: T2, VAR2CSA DBL3 domain, baculovirus-produced (Plasmodium falciparum FCR3 (implied), UniProt Q6UDW7, strain)
# T2 construct: DBL3 domain; also called DBL3X; source: baculovirus expression system, as described in [11], [20]
# Test: as above
# Settings: both partners purified
row,Binder,binding result
1,B5,no binding (tested: 50 nM)
2,B6,no binding (tested: 50 nM)
3,B7,no binding (tested: 50 nM)
4,B8,no binding (tested: 50 nM)
5,B9,no binding (tested: 50 nM)
6,B1,no binding (tested: 50 nM)
7,B10,no binding (tested: 50 nM)
8,B11,no binding (tested: 50 nM)
9,B12,no binding (tested: 50 nM)
10,B2,no binding (tested: 50 nM)
11,B13,no binding (tested: 50 nM)
12,B3,no binding (tested: 50 nM)
13,B14,no binding (tested: 50 nM)
14,B4,no binding (tested: 50 nM)
15,B15,no binding (tested: 50 nM)

# Biological target: T3, VAR2CSA DBL6 domain, baculovirus-produced (Plasmodium falciparum FCR3, UniProt Q6UDW7, strain)
# T3 construct: DBL6 domain; also called DBL6ε; source: baculovirus expression system, as described in [11], [20]
# Test: as above
# Settings: both partners purified
row,Binder,binding result
1,B1,no binding (tested: 50 nM)
2,B2,no binding (tested: 50 nM)
3,B3,no binding (tested: 50 nM)
4,B4,no binding (tested: 50 nM)

# Biological target: T4, ID1–ID2a minimal CSA-binding region of VAR2CSA, produced in Schneider 2 (S2) cells (Plasmodium falciparum FCR3, UniProt Q6UDW7, strain)
# T4 construct: ID1–ID2a region; also called ID1–ID2a (S2); source: Schneider 2 (S2) cells
# Test: as above
# Settings: both partners purified
row,Binder,binding result
1,B1,binds
2,B2,binds
3,B3,binds
4,B4,binds

# Biological target: T5, DBL1-ID2a protein of VAR2CSA (containing minimal CSA-binding region), baculovirus-produced (Plasmodium falciparum FCR3 (assumed for …, UniProt Q6UDW7, strain))
# T5 construct: DBL1-ID2a; source: baculovirus-produced
# Test: far-Western, overlay or dot blot; Western blot: recombinant VAR2CSA domain (0,4 µg/lane) run NON-REDUCED on SDS gel, blotted to nitrocellulose, probed with 50 nM Nb in TBST; rabbit anti-camel and HRP anti-rabbit
# Settings: both partners purified
row,Binder,binding result
1,B1,binds
2,B2,binds
3,B3,binds
4,B4,binds

# Biological target: T6, native VAR2CSA on the surface of NF54 infected erythrocytes (Plasmodium falciparum NF54 (VAR2CSA …, UniProt Q8I639, strain))
# T6 construct: VAR2CSA of the P. falciparum parasite line NF54, native protein on infected erythrocytes; also called VAR2CSA-expressing IE (NF54); source: endogenous, on P. falciparum NF54-infected erythrocytes
# Test: flow cytometry on cells; late stage VAR2CSA-expressing IE (FCR3, 7201, NF54) incubated with Nb (0,1 mg/ml), 30 min at 4°C; detected with mouse anti-penta-His and FITC anti-mouse; specific recognition defined by an MFI ratio >1.2
# Settings: one partner purified
row,Binder,binding result
1,B5,binds
2,B6,binds
3,B7,binds
4,B8,binds
5,B9,binds
6,B1,binds
7,B11,binds
8,B12,binds
9,B2,binds
10,B13,binds
11,B3,binds
12,B4,binds
13,B15,binds

# Biological target: T3, VAR2CSA DBL6 domain, …
# Test: ELISA; recombinant VAR2CSA protein or domain (50 nM in PBS) coated on MaxiSorp plates overnight at 4°C; Nb 50 nM in 1% skim milk in PBS, 90 min RT; detected with rabbit anti-camel and HRP anti-rabbit, OD 490 nm after 20 min
# Settings: both partners purified
# Remark: another data set of the same source
row,Binder,binding result
1,B5,binds
2,B10,binds
3,B11,binds

# Biological target: T7, ID1–ID2a minimal CSA-binding region of VAR2CSA, baculovirus-produced (Plasmodium falciparum FCR3, UniProt Q6UDW7, strain)
# T7 construct: VAR2CSA, P. falciparum FCR3; ID1–ID2a region encompassing DBL2X with the flanking parts ID1 and ID2; also called ID1–ID2a (BV); source: baculovirus expression system, as described in [11], [20]
# Test: as above
# Settings: both partners purified
row,Binder,binding result
1,B1,binds
2,B2,binds
3,B3,binds
4,B4,binds

# Biological target: T8, full-length VAR2CSA (FV2) recombinant protein, FCR3 (Plasmodium falciparum FCR3, UniProt Q6UDW7, strain)
# T8 construct: VAR2CSA (PfEMP1 family), Plasmodium falciparum strain FCR3, full-length recombinant protein; also called FV2-FCR3; source: recombinant, purified, expressed as described in [33]
# Test: as above
# Settings: both partners purified
row,Binder,binding result
1,B5,binds
2,B6,binds
3,B7,binds
4,B8,binds
5,B9,binds
6,B1,binds
7,B10,binds
8,B11,binds
9,B12,binds
10,B2,binds
11,B13,binds
12,B3,binds
13,B14,binds
14,B4,binds
15,B15,binds
